Common to all, as to assay: Ki; method not stated; unit not printed (nM per Table 6)
Assay [1] has as its target T1, MCL-1 (UniProt Q07820 172-327, limits assumed).
T1 construct: Target of the Ki columns; also called Myeloid cell leukemia 1

Assay [2] concerns the target T2, BCL-XL (UniProt Q07817 1-209).
T2 construct: Target of the Ki columns

In assay [3] the target is T3, BCL-2 (UniProt P10415 1-217, limits assumed).
T3 construct: Target of the Ki columns

Starred links: 1 amine or outer side, 2 acyl side, 3 side chain; linkers in the order of their positions; H or OH if unused. Positions of bridges follow the written chain, without caps; N, C: chain ends. Non-standard residues stand in square brackets, D forms with d. St = two pentenyl-alanine olefin side chains, each crosslinked to another residue (stitch), C=CCCCC(CCCC=C)(N[*:1])C(=O)[*:2]; Phe(4-F) = N[C@@H](Cc1ccc(F)cc1)C(=O)O; 2Nal = N[C@@H](Cc1ccc2ccccc2c1)C(=O)O; hPhe = N[C@@H](CCc1ccccc1)C(=O)O; R8 = C=CCCCCCC[C@@](C)(N)C(=O)O; Cha = N[C@@H](CC1CCCCC1)C(=O)O; S8 = C=CCCCCCC[C@](C)(N)C(=O)O; S5 = C=CCCC[C@](C)(N)C(=O)O; Abu = CC[C@H](N)C(=O)O

T3 sequence (P10415 1-217 limits assumed): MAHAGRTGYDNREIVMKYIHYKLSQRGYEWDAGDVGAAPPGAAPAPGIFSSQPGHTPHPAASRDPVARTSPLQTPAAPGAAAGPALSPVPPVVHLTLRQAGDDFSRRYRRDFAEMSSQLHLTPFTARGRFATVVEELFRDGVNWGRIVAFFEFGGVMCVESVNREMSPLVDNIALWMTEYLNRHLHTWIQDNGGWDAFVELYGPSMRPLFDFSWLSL
T1 sequence (Q07820 172-327 limits assumed): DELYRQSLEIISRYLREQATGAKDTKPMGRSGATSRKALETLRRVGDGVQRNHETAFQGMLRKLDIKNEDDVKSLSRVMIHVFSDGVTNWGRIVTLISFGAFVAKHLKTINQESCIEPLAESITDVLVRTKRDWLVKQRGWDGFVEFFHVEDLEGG
T2 sequence (Q07817 1-209): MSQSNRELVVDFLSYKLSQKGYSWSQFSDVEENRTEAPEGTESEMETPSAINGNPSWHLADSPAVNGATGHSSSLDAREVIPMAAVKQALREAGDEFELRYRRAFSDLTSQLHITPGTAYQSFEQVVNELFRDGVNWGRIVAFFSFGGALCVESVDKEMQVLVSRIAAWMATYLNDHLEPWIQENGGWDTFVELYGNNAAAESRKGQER

B1: SEQ ID NO: 1739 (peptide)
peptide: Ac-IWIAAALR[R8]IVDAFN[S5]YYA-NH2
modifications: staple 9-16
SMILES: CC[C@H](C)[C@H](NC(C)=O)C(=O)N[C@@H](Cc1c[nH]c2ccccc12)C(=O)N[C@H](C(=O)N[C@@H](C)C(=O)N[C@@H](C)C(=O)N[C@@H](C)C(=O)N[C@@H](CC(C)C)C(=O)N[C@@H](CCCNC(=N)N)C(=O)N[C@]1(C)CCCCCCC=CCCC[C@@](C)(C(=O)N[C@@H](Cc2ccc(O)cc2)C(=O)N[C@@H](Cc2ccc(O)cc2)C(=O)N[C@@H](C)C(N)=O)NC(=O)[C@H](CC(N)=O)NC(=O)[C@H](Cc2ccccc2)NC(=O)[C@H](C)NC(=O)[C@H](CC(=O)O)NC(=O)[C@H](C(C)C)NC(=O)[C@H]([C@@H](C)CC)NC1=O)[C@@H](C)CC
As to B1, the results for the Ki in assay [1], in assay [2] and in assay [3] were 104 nM, 140 nM and 120 nM, respectively.

B2: SEQ ID NO: 1756 (peptide)
peptide: Ac-IWIAQALR[R8]IGDAFN[S5]Y[Cha]A-NH2
modifications: staple 9-16
SMILES: CC[C@H](C)[C@H](NC(C)=O)C(=O)N[C@@H](Cc1c[nH]c2ccccc12)C(=O)N[C@H](C(=O)N[C@@H](C)C(=O)N[C@@H](CCC(N)=O)C(=O)N[C@@H](C)C(=O)N[C@@H](CC(C)C)C(=O)N[C@@H](CCCNC(=N)N)C(=O)N[C@]1(C)CCCCCCC=CCCC[C@@](C)(C(=O)N[C@@H](Cc2ccc(O)cc2)C(=O)N[C@@H](CC2CCCCC2)C(=O)N[C@@H](C)C(N)=O)NC(=O)[C@H](CC(N)=O)NC(=O)[C@H](Cc2ccccc2)NC(=O)[C@H](C)NC(=O)[C@H](CC(=O)O)NC(=O)CNC(=O)[C@H]([C@@H](C)CC)NC1=O)[C@@H](C)CC
On to B2, for which the results for the inhibitory constant (Ki) in assay [1], in assay [2] and in assay [3] were 24.1 nM, 8.6 nM and 28.9 nM, respectively.

B3: SEQ ID NO: 1783 (peptide)
peptide: Ac-IWIA[S5]ALR[St]IGDEFN[S8]YYA-NH2
modifications: staple 9-16, 5-9
notes: Row prints Ac-IWIA$ALRStIGDEFN$s8YYA-NH2
Turning to B3, the Ki in assay [1] worked out at 1.6 nM; in assay [2] it was 1.6 nM; in assay [3], 19.2 nM.

B4: SEQ ID NO: 1775 (peptide)
peptide: Ac-IWIAQALR[R8]IGDAFN[S5]AYA-NH2
modifications: staple 9-16
SMILES: CC[C@H](C)[C@H](NC(C)=O)C(=O)N[C@@H](Cc1c[nH]c2ccccc12)C(=O)N[C@H](C(=O)N[C@@H](C)C(=O)N[C@@H](CCC(N)=O)C(=O)N[C@@H](C)C(=O)N[C@@H](CC(C)C)C(=O)N[C@@H](CCCNC(=N)N)C(=O)N[C@]1(C)CCCCCCC=CCCC[C@@](C)(C(=O)N[C@@H](C)C(=O)N[C@@H](Cc2ccc(O)cc2)C(=O)N[C@@H](C)C(N)=O)NC(=O)[C@H](CC(N)=O)NC(=O)[C@H](Cc2ccccc2)NC(=O)[C@H](C)NC(=O)[C@H](CC(=O)O)NC(=O)CNC(=O)[C@H]([C@@H](C)CC)NC1=O)[C@@H](C)CC
Regarding B4, the inhibition constant Ki in assay [1] is 5.3 nM; in assay [2], 12.6 nM; in assay [3] it was 112 nM.

B5: SEQ ID NO: 1759 (peptide)
peptide: Ac-IWIAQALR[R8]IGDAFN[S5]Y[2Nal]A-NH2
modifications: staple 9-16
SMILES: CC[C@H](C)[C@H](NC(C)=O)C(=O)N[C@@H](Cc1c[nH]c2ccccc12)C(=O)N[C@H](C(=O)N[C@@H](C)C(=O)N[C@@H](CCC(N)=O)C(=O)N[C@@H](C)C(=O)N[C@@H](CC(C)C)C(=O)N[C@@H](CCCNC(=N)N)C(=O)N[C@]1(C)CCCCCCC=CCCC[C@@](C)(C(=O)N[C@@H](Cc2ccc(O)cc2)C(=O)N[C@@H](Cc2ccc3ccccc3c2)C(=O)N[C@@H](C)C(N)=O)NC(=O)[C@H](CC(N)=O)NC(=O)[C@H](Cc2ccccc2)NC(=O)[C@H](C)NC(=O)[C@H](CC(=O)O)NC(=O)CNC(=O)[C@H]([C@@H](C)CC)NC1=O)[C@@H](C)CC
As for B5, the Ki in assay [1] is 8 nM; in assay [2], 26.1 nM; in assay [3] it was 65.2 nM.

B6: SEQ ID NO: 1758 (peptide)
peptide: Ac-IWIAQALR[R8]IGDAFN[S5]YWA-NH2
modifications: staple 9-16
SMILES: CC[C@H](C)[C@H](NC(C)=O)C(=O)N[C@@H](Cc1c[nH]c2ccccc12)C(=O)N[C@H](C(=O)N[C@@H](C)C(=O)N[C@@H](CCC(N)=O)C(=O)N[C@@H](C)C(=O)N[C@@H](CC(C)C)C(=O)N[C@@H](CCCNC(=N)N)C(=O)N[C@]1(C)CCCCCCC=CCCC[C@@](C)(C(=O)N[C@@H](Cc2ccc(O)cc2)C(=O)N[C@@H](Cc2c[nH]c3ccccc23)C(=O)N[C@@H](C)C(N)=O)NC(=O)[C@H](CC(N)=O)NC(=O)[C@H](Cc2ccccc2)NC(=O)[C@H](C)NC(=O)[C@H](CC(=O)O)NC(=O)CNC(=O)[C@H]([C@@H](C)CC)NC1=O)[C@@H](C)CC
Turning to B6, the Ki in assay [1] amounted to 3.9 nM; in assay [2], 15.4 nM; in assay [3], 23.5 nM.

B7: SEQ ID NO: 1769 (peptide)
peptide: Ac-IWIAQALR[R8]IGDAFN[S5][Phe(4-F)]YA-NH2
modifications: staple 9-16
SMILES: CC[C@H](C)[C@H](NC(C)=O)C(=O)N[C@@H](Cc1c[nH]c2ccccc12)C(=O)N[C@H](C(=O)N[C@@H](C)C(=O)N[C@@H](CCC(N)=O)C(=O)N[C@@H](C)C(=O)N[C@@H](CC(C)C)C(=O)N[C@@H](CCCNC(=N)N)C(=O)N[C@]1(C)CCCCCCC=CCCC[C@@](C)(C(=O)N[C@@H](Cc2ccc(F)cc2)C(=O)N[C@@H](Cc2ccc(O)cc2)C(=O)N[C@@H](C)C(N)=O)NC(=O)[C@H](CC(N)=O)NC(=O)[C@H](Cc2ccccc2)NC(=O)[C@H](C)NC(=O)[C@H](CC(=O)O)NC(=O)CNC(=O)[C@H]([C@@H](C)CC)NC1=O)[C@@H](C)CC
Turning to B7, the Ki in assay [1] turned out to be 14.9 nM; in assay [2] it was 26 nM; in assay [3], 200 nM.

B8: SEQ ID NO: 1782 (peptide)
peptide: Ac-I[R8]IAQALR[St]IGDEFN[S8]YYA-NH2
modifications: staple 9-16, 2-9
notes: Row prints Ac-I$r8IAQALRStIGDEFN$s8YYA-NH2
On to B8, for which the results for the inhibition constant Ki in assay [1], in assay [2] and in assay [3] were 1.1 nM, 1.1 nM and 22 nM, respectively.

B9: SEQ ID NO: 1757 (peptide)
peptide: Ac-IWIAQALR[R8]IGDAFN[S5]Y[hPhe]A-NH2
modifications: staple 9-16
SMILES: CC[C@H](C)[C@H](NC(C)=O)C(=O)N[C@@H](Cc1c[nH]c2ccccc12)C(=O)N[C@H](C(=O)N[C@@H](C)C(=O)N[C@@H](CCC(N)=O)C(=O)N[C@@H](C)C(=O)N[C@@H](CC(C)C)C(=O)N[C@@H](CCCNC(=N)N)C(=O)N[C@]1(C)CCCCCCC=CCCC[C@@](C)(C(=O)N[C@@H](Cc2ccc(O)cc2)C(=O)N[C@@H](CCc2ccccc2)C(=O)N[C@@H](C)C(N)=O)NC(=O)[C@H](CC(N)=O)NC(=O)[C@H](Cc2ccccc2)NC(=O)[C@H](C)NC(=O)[C@H](CC(=O)O)NC(=O)CNC(=O)[C@H]([C@@H](C)CC)NC1=O)[C@@H](C)CC
In the case of B9, the results for the Ki in assay [1], in assay [2] and in assay [3] were 8 nM, 12.1 nM and 30.7 nM, respectively.

B10: SEQ ID NO: 1737 (peptide)
peptide: Ac-IWIAAALK[R8]IGDAFN[S5]YYA-NH2
modifications: staple 9-16
SMILES: CC[C@H](C)[C@H](NC(C)=O)C(=O)N[C@@H](Cc1c[nH]c2ccccc12)C(=O)N[C@H](C(=O)N[C@@H](C)C(=O)N[C@@H](C)C(=O)N[C@@H](C)C(=O)N[C@@H](CC(C)C)C(=O)N[C@@H](CCCCN)C(=O)N[C@]1(C)CCCCCCC=CCCC[C@@](C)(C(=O)N[C@@H](Cc2ccc(O)cc2)C(=O)N[C@@H](Cc2ccc(O)cc2)C(=O)N[C@@H](C)C(N)=O)NC(=O)[C@H](CC(N)=O)NC(=O)[C@H](Cc2ccccc2)NC(=O)[C@H](C)NC(=O)[C@H](CC(=O)O)NC(=O)CNC(=O)[C@H]([C@@H](C)CC)NC1=O)[C@@H](C)CC
B10: the Ki in assay [1] is 23.2 nM; in assay [2] it was 11.7 nM; in assay [3] it was 25.6 nM.

B11: SEQ ID NO: 1738 (peptide)
peptide: Ac-IWIAAALR[R8]I[Abu]DAFN[S5]YYA-NH2
modifications: staple 9-16
SMILES: CC[C@@H]1NC(=O)[C@H]([C@@H](C)CC)NC(=O)[C@](C)(NC(=O)[C@H](CCCNC(=N)N)NC(=O)[C@H](CC(C)C)NC(=O)[C@H](C)NC(=O)[C@H](C)NC(=O)[C@H](C)NC(=O)[C@@H](NC(=O)[C@H](Cc2c[nH]c3ccccc23)NC(=O)[C@@H](NC(C)=O)[C@@H](C)CC)[C@@H](C)CC)CCCCCCC=CCCC[C@@](C)(C(=O)N[C@@H](Cc2ccc(O)cc2)C(=O)N[C@@H](Cc2ccc(O)cc2)C(=O)N[C@@H](C)C(N)=O)NC(=O)[C@H](CC(N)=O)NC(=O)[C@H](Cc2ccccc2)NC(=O)[C@H](C)NC(=O)[C@H](CC(=O)O)NC1=O
On to B11, for which the Ki in assay [1] was 106 nM; in assay [2], 112 nM; in assay [3], 131 nM.

B12: SEQ ID NO: 1740 (peptide)
peptide: Ac-IWIAAALR[R8]IGEAFN[S5]YYA-NH2
modifications: staple 9-16
SMILES: CC[C@H](C)[C@H](NC(C)=O)C(=O)N[C@@H](Cc1c[nH]c2ccccc12)C(=O)N[C@H](C(=O)N[C@@H](C)C(=O)N[C@@H](C)C(=O)N[C@@H](C)C(=O)N[C@@H](CC(C)C)C(=O)N[C@@H](CCCNC(=N)N)C(=O)N[C@]1(C)CCCCCCC=CCCC[C@@](C)(C(=O)N[C@@H](Cc2ccc(O)cc2)C(=O)N[C@@H](Cc2ccc(O)cc2)C(=O)N[C@@H](C)C(N)=O)NC(=O)[C@H](CC(N)=O)NC(=O)[C@H](Cc2ccccc2)NC(=O)[C@H](C)NC(=O)[C@H](CCC(=O)O)NC(=O)CNC(=O)[C@H]([C@@H](C)CC)NC1=O)[C@@H](C)CC
With B12, the Ki came out at 63.6 nM in assay [1], 135 nM in assay [2] and 142 nM in assay [3].

Usually Ki stands for the equilibrium dissociation constant of an inhibitor or competing ligand from its target. Low readings indicate a stronger hold on the target, high ones a looser hold on the target.
